T1: APBA1_2, Q02410
T1 sequence (Q02410 742-832, limits assumed, looked up): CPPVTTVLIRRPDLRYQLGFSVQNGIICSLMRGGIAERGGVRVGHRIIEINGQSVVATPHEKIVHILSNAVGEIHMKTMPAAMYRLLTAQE

T2: PARD3B_1, Q8TEW8
T2 sequence (Q8TEW8 196-299, limits assumed, looked up): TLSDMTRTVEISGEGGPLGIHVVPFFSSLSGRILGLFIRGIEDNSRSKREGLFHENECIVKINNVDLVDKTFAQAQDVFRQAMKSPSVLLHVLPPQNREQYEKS

T3: SNTG1, Q9NSN8
T3 sequence (Q9NSN8 52-150, limits assumed, looked up): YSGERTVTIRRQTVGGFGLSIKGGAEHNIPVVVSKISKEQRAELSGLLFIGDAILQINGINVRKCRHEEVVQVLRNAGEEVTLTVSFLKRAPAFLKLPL

T4: CARD11, Q9BXL7
T4 sequence (Q9BXL7 662-765, limits assumed, looked up): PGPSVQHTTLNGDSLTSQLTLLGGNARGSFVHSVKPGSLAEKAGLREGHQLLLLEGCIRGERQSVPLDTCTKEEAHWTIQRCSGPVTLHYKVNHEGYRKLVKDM

T5: LRRC7, Q96NW7
T5 sequence (Q96NW7 1440-1537, limits assumed, looked up): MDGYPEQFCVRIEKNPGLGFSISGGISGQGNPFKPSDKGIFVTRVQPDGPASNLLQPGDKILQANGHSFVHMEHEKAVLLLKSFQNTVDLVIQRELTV

T6: NHERF3_3, Q5T2W1
T6 sequence (Q5T2W1 238-333, limits assumed, looked up): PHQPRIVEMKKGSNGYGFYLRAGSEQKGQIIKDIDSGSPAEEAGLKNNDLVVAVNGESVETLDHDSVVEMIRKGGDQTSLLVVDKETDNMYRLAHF

T7: SNTG2, Q9NY99
T7 sequence (Q9NY99 68-166, limits assumed, looked up): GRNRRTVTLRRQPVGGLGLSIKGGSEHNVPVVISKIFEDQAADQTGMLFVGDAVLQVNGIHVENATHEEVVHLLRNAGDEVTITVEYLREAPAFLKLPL

T8: MPP6, Q9NZW5
T8 sequence (Q9NZW5 125-219, limits assumed, looked up): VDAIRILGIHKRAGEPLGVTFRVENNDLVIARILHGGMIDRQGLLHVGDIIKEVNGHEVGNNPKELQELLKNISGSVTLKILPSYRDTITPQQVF

T9: NHERF3_1, Q5T2W1
T9 sequence (Q5T2W1 4-100, limits assumed, looked up): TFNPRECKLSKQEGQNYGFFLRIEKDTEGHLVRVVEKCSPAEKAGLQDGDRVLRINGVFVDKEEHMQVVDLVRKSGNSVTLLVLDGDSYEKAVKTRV


target: DLG2_2, Q15700; assay: holdup assay; set-up: key: below the threshold = too weak to quantify, mostly under pKd 3.1 to 4; settings: plain residues with an end cap or a label only (N-terminal biotin on a linker: ado-ado)
Sequence (Q15700 189-283): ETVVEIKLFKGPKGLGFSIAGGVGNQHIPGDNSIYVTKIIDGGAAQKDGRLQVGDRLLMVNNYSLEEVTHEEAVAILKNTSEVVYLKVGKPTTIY

Row | pKd | Binder
1 | 4.23 | GTMFLRETSL [GUCY1A2, P33402]

target: SCRIB_3, Q14160; assay: holdup assay; set-up: key: below the threshold = too weak to quantify, mostly under pKd 3.1 to 4; settings: plain residues with an end cap or a label only (N-terminal biotin on a linker: ado-ado)
Sequence (Q14160 999-1103): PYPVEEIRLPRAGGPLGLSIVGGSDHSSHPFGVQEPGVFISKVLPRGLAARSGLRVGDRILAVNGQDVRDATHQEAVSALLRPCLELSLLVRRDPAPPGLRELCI

Row | pKd | Binder
2 | 5.37 | GTMFLRETSL [GUCY1A2, P33402]

target: T1, APBA1_2, Q02410; assay: holdup assay; set-up: key: below the threshold = too weak to quantify, mostly under pKd 3.1 to 4; settings: plain residues with an end cap or a label only (N-terminal biotin on a linker: ado-ado)

Row | pKd | Binder
3 | 3.61 | GTMFLRETSL [GUCY1A2, P33402]

target: PICK1, Q9NRD5; assay: holdup assay; set-up: key: below the threshold = too weak to quantify, mostly under pKd 3.1 to 4; settings: plain residues with an end cap or a label only (N-terminal biotin on a linker: ado-ado)
Sequence (Q9NRD5 17-115): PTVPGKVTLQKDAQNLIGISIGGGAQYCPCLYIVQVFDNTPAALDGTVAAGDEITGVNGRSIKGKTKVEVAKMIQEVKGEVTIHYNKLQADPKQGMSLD

Row | pKd | Binder
4 | 4.12 | GTMFLRETSL [GUCY1A2, P33402]

target: T2, PARD3B_1, Q8TEW8; assay: holdup assay; set-up: key: below the threshold = too weak to quantify, mostly under pKd 3.1 to 4; settings: plain residues with an end cap or a label only (N-terminal biotin on a linker: ado-ado)

Row | pKd | Binder
5 | 3.88 | GTMFLRETSL [GUCY1A2, P33402]

target: NHERF4_4, Q86UT5; assay: holdup assay; set-up: key: below the threshold = too weak to quantify, mostly under pKd 3.1 to 4; settings: plain residues with an end cap or a label only (N-terminal biotin on a linker: ado-ado)
Sequence (Q86UT5 464-550): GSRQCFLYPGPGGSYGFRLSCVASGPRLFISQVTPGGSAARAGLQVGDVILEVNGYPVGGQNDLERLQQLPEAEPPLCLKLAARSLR

Row | pKd | Binder
6 | below the threshold | GTMFLRETSL [GUCY1A2, P33402]

target: SCRIB_1, Q14160; assay: holdup assay; set-up: key: below the threshold = too weak to quantify, mostly under pKd 3.1 to 4; settings: plain residues with an end cap or a label only (N-terminal biotin on a linker: ado-ado)
Sequence (Q14160 718-814): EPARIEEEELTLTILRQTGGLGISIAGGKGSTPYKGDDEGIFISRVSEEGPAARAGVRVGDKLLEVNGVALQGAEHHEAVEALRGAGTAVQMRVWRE

Row | pKd | Binder
7 | 5.69 | GTMFLRETSL [GUCY1A2, P33402]

target: T3, SNTG1, Q9NSN8; assay: holdup assay; set-up: key: below the threshold = too weak to quantify, mostly under pKd 3.1 to 4; settings: plain residues with an end cap or a label only (N-terminal biotin on a linker: ado-ado)

Row | pKd | Binder
8 | 5.09 | GTMFLRETSL [GUCY1A2, P33402]

target: Inadl_3, Q8NI35; assay: holdup assay; set-up: key: below the threshold = too weak to quantify, mostly under pKd 3.1 to 4; settings: plain residues with an end cap or a label only (N-terminal biotin on a linker: ado-ado)
Sequence (Q8NI35 359-469): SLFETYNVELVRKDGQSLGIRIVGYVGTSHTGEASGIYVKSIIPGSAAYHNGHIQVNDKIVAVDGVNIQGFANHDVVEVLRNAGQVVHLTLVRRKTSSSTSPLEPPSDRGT

Row | pKd | Binder
9 | below the threshold | GTMFLRETSL [GUCY1A2, P33402]

target: LIMK2, P53671; assay: holdup assay; set-up: key: below the threshold = too weak to quantify, mostly under pKd 3.1 to 4; settings: plain residues with an end cap or a label only (N-terminal biotin on a linker: ado-ado)
Sequence (P53671 143-248): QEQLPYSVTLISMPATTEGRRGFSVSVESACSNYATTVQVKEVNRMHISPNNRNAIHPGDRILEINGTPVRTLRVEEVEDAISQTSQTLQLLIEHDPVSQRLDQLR

Row | pKd | Binder
10 | below the threshold | GTMFLRETSL [GUCY1A2, P33402]

target: GRIP2_6, Q9C0E4; assay: holdup assay; set-up: key: below the threshold = too weak to quantify, mostly under pKd 3.1 to 4; settings: plain residues with an end cap or a label only (N-terminal biotin on a linker: ado-ado)
Sequence (Q9C0E4 648-740): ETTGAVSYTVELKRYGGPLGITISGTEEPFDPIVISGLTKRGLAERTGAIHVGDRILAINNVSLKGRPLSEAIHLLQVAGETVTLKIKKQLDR

Row | pKd | Binder
11 | below the threshold | GTMFLRETSL [GUCY1A2, P33402]

target: T4, CARD11, Q9BXL7; assay: holdup assay; set-up: key: below the threshold = too weak to quantify, mostly under pKd 3.1 to 4; settings: plain residues with an end cap or a label only (N-terminal biotin on a linker: ado-ado)

Row | pKd | Binder
12 | below the threshold | GTMFLRETSL [GUCY1A2, P33402]

target: TJP1_3, Q07157; assay: holdup assay; set-up: key: below the threshold = too weak to quantify, mostly under pKd 3.1 to 4; settings: plain residues with an end cap or a label only (N-terminal biotin on a linker: ado-ado)
Sequence (Q07157 416-512): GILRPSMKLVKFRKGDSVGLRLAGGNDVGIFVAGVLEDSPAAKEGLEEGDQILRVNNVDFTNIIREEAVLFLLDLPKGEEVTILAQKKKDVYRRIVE

Row | pKd | Binder
13 | below the threshold | GTMFLRETSL [GUCY1A2, P33402]

target: DLG5_1, Q8TDM6; assay: holdup assay; set-up: key: below the threshold = too weak to quantify, mostly under pKd 3.1 to 4; settings: plain residues with an end cap or a label only (N-terminal biotin on a linker: ado-ado)
Sequence (Q8TDM6 617-713): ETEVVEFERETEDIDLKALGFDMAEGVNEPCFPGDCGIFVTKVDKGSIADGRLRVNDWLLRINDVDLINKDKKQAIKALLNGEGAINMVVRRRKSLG

Row | pKd | Binder
14 | below the threshold | GTMFLRETSL [GUCY1A2, P33402]

target: IL16_4, Q14005; assay: holdup assay; set-up: key: below the threshold = too weak to quantify, mostly under pKd 3.1 to 4; settings: plain residues with an end cap or a label only (N-terminal biotin on a linker: ado-ado)
Sequence (Q14005 1229-1329): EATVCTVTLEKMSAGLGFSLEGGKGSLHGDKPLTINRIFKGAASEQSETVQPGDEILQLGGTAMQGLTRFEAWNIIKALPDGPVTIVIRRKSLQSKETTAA

Row | pKd | Binder
15 | 3.51 | GTMFLRETSL [GUCY1A2, P33402]

target: LNX1_1, Q8TBB1; assay: holdup assay; set-up: key: below the threshold = too weak to quantify, mostly under pKd 3.1 to 4; settings: plain residues with an end cap or a label only (N-terminal biotin on a linker: ado-ado)
Sequence (Q8TBB1 261-371): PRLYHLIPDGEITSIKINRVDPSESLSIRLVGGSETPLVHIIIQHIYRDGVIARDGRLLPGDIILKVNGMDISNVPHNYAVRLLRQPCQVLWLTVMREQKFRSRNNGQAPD

Row | pKd | Binder
16 | 3.73 | GTMFLRETSL [GUCY1A2, P33402]

target: T5, LRRC7, Q96NW7; assay: holdup assay; set-up: key: below the threshold = too weak to quantify, mostly under pKd 3.1 to 4; settings: plain residues with an end cap or a label only (N-terminal biotin on a linker: ado-ado)

Row | pKd | Binder
17 | 4.33 | GTMFLRETSL [GUCY1A2, P33402]

target: LDB3, O75112; assay: holdup assay; set-up: key: below the threshold = too weak to quantify, mostly under pKd 3.1 to 4; settings: plain residues with an end cap or a label only (N-terminal biotin on a linker: ado-ado)
Sequence (O75112 1-94): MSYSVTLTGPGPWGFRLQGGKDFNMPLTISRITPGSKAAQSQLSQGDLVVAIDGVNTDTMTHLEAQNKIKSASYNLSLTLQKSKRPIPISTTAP

Row | pKd | Binder
18 | below the threshold | GTMFLRETSL [GUCY1A2, P33402]

target: DLG1_3, Q12959; assay: holdup assay; set-up: key: below the threshold = too weak to quantify, mostly under pKd 3.1 to 4; settings: plain residues with an end cap or a label only (N-terminal biotin on a linker: ado-ado)
Sequence (Q12959 457-571): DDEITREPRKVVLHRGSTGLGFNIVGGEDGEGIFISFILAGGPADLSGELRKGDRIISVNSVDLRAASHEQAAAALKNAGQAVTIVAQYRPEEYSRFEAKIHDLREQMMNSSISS

Row | pKd | Binder
19 | 5.09 | GTMFLRETSL [GUCY1A2, P33402]

target: T6, NHERF3_3, Q5T2W1; assay: holdup assay; set-up: key: below the threshold = too weak to quantify, mostly under pKd 3.1 to 4; settings: plain residues with an end cap or a label only (N-terminal biotin on a linker: ado-ado)

Row | pKd | Binder
20 | below the threshold | GTMFLRETSL [GUCY1A2, P33402]

target: PTPN3, P26045; assay: holdup assay; set-up: key: below the threshold = too weak to quantify, mostly under pKd 3.1 to 4; settings: plain residues with an end cap or a label only (N-terminal biotin on a linker: ado-ado)
Sequence (P26045 505-587): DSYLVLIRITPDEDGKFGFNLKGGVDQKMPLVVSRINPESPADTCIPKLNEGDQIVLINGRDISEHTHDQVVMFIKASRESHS

Row | pKd | Binder
21 | 5.04 | GTMFLRETSL [GUCY1A2, P33402]

target: T7, SNTG2, Q9NY99; assay: holdup assay; set-up: key: below the threshold = too weak to quantify, mostly under pKd 3.1 to 4; settings: plain residues with an end cap or a label only (N-terminal biotin on a linker: ado-ado)

Row | pKd | Binder
22 | 5.27 | GTMFLRETSL [GUCY1A2, P33402]

target: IL16_1, Q14005; assay: holdup assay; set-up: key: below the threshold = too weak to quantify, mostly under pKd 3.1 to 4; settings: plain residues with an end cap or a label only (N-terminal biotin on a linker: ado-ado)
Sequence (Q14005 210-306): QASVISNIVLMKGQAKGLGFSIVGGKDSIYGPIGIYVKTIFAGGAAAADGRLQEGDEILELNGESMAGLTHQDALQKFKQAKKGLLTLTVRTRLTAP

Row | pKd | Binder
23 | 4.47 | GTMFLRETSL [GUCY1A2, P33402]

target: T8, MPP6, Q9NZW5; assay: holdup assay; set-up: key: below the threshold = too weak to quantify, mostly under pKd 3.1 to 4; settings: plain residues with an end cap or a label only (N-terminal biotin on a linker: ado-ado)

Row | pKd | Binder
24 | below the threshold | GTMFLRETSL [GUCY1A2, P33402]

target: MAGI2_3, Q86UL8; assay: holdup assay; set-up: key: below the threshold = too weak to quantify, mostly under pKd 3.1 to 4; settings: plain residues with an end cap or a label only (N-terminal biotin on a linker: ado-ado)
Sequence (Q86UL8 600-682): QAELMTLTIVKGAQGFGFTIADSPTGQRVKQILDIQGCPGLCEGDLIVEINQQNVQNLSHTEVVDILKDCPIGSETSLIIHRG

Row | pKd | Binder
25 | 3.71 | GTMFLRETSL [GUCY1A2, P33402]

target: GRASP, Q7Z6J2; assay: holdup assay; set-up: key: below the threshold = too weak to quantify, mostly under pKd 3.1 to 4; settings: plain residues with an end cap or a label only (N-terminal biotin on a linker: ado-ado)
Sequence (Q7Z6J2 96-193): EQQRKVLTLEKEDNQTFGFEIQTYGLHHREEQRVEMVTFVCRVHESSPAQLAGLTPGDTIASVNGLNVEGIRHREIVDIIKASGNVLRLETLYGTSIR

Row | pKd | Binder
26 | 4.73 | GTMFLRETSL [GUCY1A2, P33402]

target: AHNAK1, Q09666; assay: holdup assay; set-up: key: below the threshold = too weak to quantify, mostly under pKd 3.1 to 4; settings: plain residues with an end cap or a label only (N-terminal biotin on a linker: ado-ado)
Sequence (Q09666 4-100): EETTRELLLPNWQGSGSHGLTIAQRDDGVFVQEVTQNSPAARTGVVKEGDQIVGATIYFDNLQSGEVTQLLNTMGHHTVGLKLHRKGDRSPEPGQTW

Row | pKd | Binder
27 | below the threshold | GTMFLRETSL [GUCY1A2, P33402]

target: T9, NHERF3_1, Q5T2W1; assay: holdup assay; set-up: key: below the threshold = too weak to quantify, mostly under pKd 3.1 to 4; settings: plain residues with an end cap or a label only (N-terminal biotin on a linker: ado-ado)

Row | pKd | Binder
28 | 5.64 | GTMFLRETSL [GUCY1A2, P33402]

Reference: PMC9482650, “Quantitative fragmentomics allow affinity mapping of interactomes” (Nature Communications, 2022)
